Assay results published in patent US20150284431A1 (H LEE MOFFITT CANCER CENTER AND RESEARCH INSTITUTE, published 2015).
Square brackets hold non-standard residues; d marks the D form. Primed or numbered codes have the meaning given here. Side chains are listed from the residue outwards. * marks the point of attachment. Butanoyl(4-Ph) = O=C(CCCc1ccccc1)*; IR800CW″ = IRDye800CW maleimide; Mpa = O=C(O)CCS

Target: MC5R expressed in the kidneys (of the xenograft-bearing mice)
Experiment: cell-based or functional assay

Chain of MC5R expressed in the kidneys (of the xenograft-bearing mice) (P41149 whole entry): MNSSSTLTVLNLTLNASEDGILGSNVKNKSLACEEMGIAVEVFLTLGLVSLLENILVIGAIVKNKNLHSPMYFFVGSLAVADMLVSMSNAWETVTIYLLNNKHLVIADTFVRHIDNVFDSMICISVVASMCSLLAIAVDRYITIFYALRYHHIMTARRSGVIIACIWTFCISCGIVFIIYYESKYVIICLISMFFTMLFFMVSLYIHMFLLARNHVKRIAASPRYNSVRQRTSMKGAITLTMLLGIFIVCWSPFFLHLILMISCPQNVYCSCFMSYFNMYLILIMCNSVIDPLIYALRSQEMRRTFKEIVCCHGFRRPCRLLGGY

Binder: {Butanoyl(4-Ph)}-H[dF]RWGK([Mpa-IR800CW″])-NH2 [4-phenylbutyryl-His-DPhe-Arg-Trp-Gly-Lys(Mpr-IR800CW)-NH2]
- fold decrease in renal uptake of MC1RL-800 at 2 hr, with co-injection of 1 nmol/kg MC4R/5R compound (SEQ ID NO:10), compared to control animals: 1.56 fold
